Values of other authors, collected in patent US8257684B2, “Methods for identifying and targeting autonomic brain regions” (Neurosigma, Inc., priority 2008, dated 2012).
No end group written: not given here.

Target: T1, OX1R (Homo sapiens, UniProt O43613)
T1 sequence (O43613 1-425): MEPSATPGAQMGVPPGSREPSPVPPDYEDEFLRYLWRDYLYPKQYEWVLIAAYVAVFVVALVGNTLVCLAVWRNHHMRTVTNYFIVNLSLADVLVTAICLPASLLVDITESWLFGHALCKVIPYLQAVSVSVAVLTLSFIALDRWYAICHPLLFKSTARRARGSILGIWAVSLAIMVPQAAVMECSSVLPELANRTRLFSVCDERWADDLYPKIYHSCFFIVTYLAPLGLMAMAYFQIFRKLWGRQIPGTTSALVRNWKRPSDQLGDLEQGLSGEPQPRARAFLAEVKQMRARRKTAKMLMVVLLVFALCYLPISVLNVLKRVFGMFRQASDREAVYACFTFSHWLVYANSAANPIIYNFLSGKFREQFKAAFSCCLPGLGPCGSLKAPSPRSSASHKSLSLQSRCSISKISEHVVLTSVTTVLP
Conditions: ORXa versus ORXb; Lund et al., Journal of Biological Chemistry

## Orexin-A (QPLPDCCRQKTCSCRLYELLHGAGNHAAGILTL; not fully specified (residue 1, C-terminus, bridges); cysteine pairing not given here; UniProt O43612 34-66, looked up) [ORXa, ORX molecule produced in the LHA; agonist of OX1R]
  higher affinity of OX1R for ORXa than for ORXb: approximately 10 fold
